# Results reported in IntAct's records for PubMed 22265419.
# B1: WASH complex subunit homolog 3 (Caenorhabditis elegans), O01901 (parent)
# chain: MNASSRTKPAIDLNKVPPIDHHRTAVTFNCLIMKMTEMLNNFGNKMEDILEKAEQSLDTADRKLRLMESKLAGMSLEDKSTTATPSSAPEIDEIHESNPSSSQIVEETVEEKPEEHTTTVLIKDDPAYSKYFKMLKLGVLEAGVIQKMKSEGVDPSILKRGDEPSRPQAQTSRNYESSGESTASFSDSD
# partner: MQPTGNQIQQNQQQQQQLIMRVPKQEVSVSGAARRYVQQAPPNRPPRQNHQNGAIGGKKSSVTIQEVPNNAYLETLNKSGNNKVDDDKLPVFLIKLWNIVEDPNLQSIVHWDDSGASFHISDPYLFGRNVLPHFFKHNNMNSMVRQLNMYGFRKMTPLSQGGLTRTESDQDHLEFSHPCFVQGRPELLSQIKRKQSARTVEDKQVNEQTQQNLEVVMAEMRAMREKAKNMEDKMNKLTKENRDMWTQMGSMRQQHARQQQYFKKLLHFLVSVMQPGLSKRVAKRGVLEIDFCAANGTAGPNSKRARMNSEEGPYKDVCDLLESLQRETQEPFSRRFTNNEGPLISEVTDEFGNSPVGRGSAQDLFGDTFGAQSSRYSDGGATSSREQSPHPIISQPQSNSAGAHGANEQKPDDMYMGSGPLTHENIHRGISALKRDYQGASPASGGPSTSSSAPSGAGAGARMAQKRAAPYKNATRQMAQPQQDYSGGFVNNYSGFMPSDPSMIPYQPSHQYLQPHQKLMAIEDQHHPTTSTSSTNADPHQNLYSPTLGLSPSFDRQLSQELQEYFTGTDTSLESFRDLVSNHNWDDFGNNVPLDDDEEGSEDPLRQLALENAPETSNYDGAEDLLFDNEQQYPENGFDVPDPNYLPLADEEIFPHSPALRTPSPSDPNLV
# Variants of: B1
# Settings: with hsf1_caeel hsf-1, G5EFT5
row,effect of a mutation on the interaction,Variant
1,increasing interaction,MNASSRTKPAIDLNKVPPIDHHRTAVTFNCLIMKMTEMLNNFGNKMEDILEKAEQSLDTADRKLRLMESKLAGMSLEDKSTTATPSSAPEIDEIHESNPSSSQIVEETVEEKPEEHTTTVLIKDDPAYSKYFKMLKLGVLEAGVIQKMKSEGVDPSILKRGDEPSRPQAQTSRNYESSGESAASFSDSD [T182A]
